# US20170100354A1
# Target: H4 tail (residues 1-30) of the acetyl reporter protein (H4ac indicator)
# Experiment: cell-based or functional assay
sequence,measurement,value
TATA binding protein (TBP)-associated factor II (TAFII) bromodomain of the H4ac indicator,"% of cells discriminated from auto fluorescence (FACS), H4ac indicator, 1 µM SAHA",5%
same,"% of cells discriminated from auto fluorescence (FACS), H4ac indicator, 2.5 µM SAHA",20%
same,"% of cells discriminated from auto fluorescence (FACS), H4ac indicator, 7.5 µM SAHA",40%
same,"% of cells discriminated from auto fluorescence (FACS), H4ac indicator, 10 µM SAHA",45%
